This note sets out measurements from patent publication US20240317847A1 (Bayer, published 2024).

In one assay the target is T1, murine IL-11 (mouse, UniProt P47873 22-199).
T1 construct: bought from Invigate; also called mIL-11; mIL11
T1 sequence: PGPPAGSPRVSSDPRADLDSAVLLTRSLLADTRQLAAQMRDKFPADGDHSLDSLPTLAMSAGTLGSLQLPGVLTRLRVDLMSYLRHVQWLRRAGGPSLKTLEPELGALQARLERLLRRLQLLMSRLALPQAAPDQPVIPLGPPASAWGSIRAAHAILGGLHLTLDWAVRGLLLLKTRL
Kind of assay: SPR, antibody captured, IL-11 as analyte. As to the method:
(§1) Antibodies were captured via anti-mouse Fc IgGs (“Mouse antibody capture kit, Order No. BR100383, Cytiva) covalently amine coupled to a Series S CM5 sensor chip (Cytiva). The amine coupling was carried out according to the manufacturer's instructions using 1-ethyl-3-(3-dimethylaminopropyl) carbodiimide hydrochloride (EDC), N-hydroxysuccinimide (NHS) and ethanolamine HCl, pH 8.5 (“Amine Coupling Kit” BR-1000-50, Cytiva.). Human IL-11 (Invigate, e.g., lot #C121021-19), and murine IL-11 (Invigate, e.g., lot #C210819-09) were used as analytes. […] Based on that experiment an IL-11 concentration range was chosen to optimally determine kinetics and affinity of anti-IL-11 antibodies in multicycle kinetics mode. The sensor surface was regenerated with glycine pH 1.7 after each antigen injection. Obtained sensorgrams were double referenced (subtraction of reference flow cell signal and buffer injection) and were fitted to a 1:1 Langmuir binding model to derive kinetic data using the Biacore T200 Evaluation software or the Biacore Insight software.
(§2) Deviations from closest human germlines in CDR regions and FW regions and potential CMC relevant residues in CDR regions were adjusted by site directed mutagenesis following standard molecular protocols or purchased from DNA synthesis providers. The generated DNA constructs were expressed by transient transfection of mammalian cells and purified as described in Example 15. Antibodies were then tested for human IL-11 and murine IL-11 binding by SPR as described in Example 16.
In general terms: Surface plasmon resonance follows binding to a sensor surface in real time, without labels.

In a further assay the target is T2, human IL-11 (human, UniProt P20809 22-199).
T2 construct: bought from Invigate; also called hIL-11; hIL11
T2 sequence: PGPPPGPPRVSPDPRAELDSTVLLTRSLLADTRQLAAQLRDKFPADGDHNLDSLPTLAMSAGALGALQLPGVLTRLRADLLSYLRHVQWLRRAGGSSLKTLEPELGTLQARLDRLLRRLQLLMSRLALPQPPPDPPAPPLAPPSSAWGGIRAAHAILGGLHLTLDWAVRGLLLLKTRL
Kind of assay: SPR, antibody captured, IL-11 as analyte. As to the method: as §1, §2

B1: TPP-19841 (antibody, V domains shown)
VH: EVQLLESGGGLVQPGGSLRLSCAASGFTFSSYGMHWVRQAPGKGLEWVSVISYDGSYKYYADSVKGRFTISRDNSKNTLYLQMNSLRAEDTAVYYCAAGVPDYWGQGTLVTVSS
VL: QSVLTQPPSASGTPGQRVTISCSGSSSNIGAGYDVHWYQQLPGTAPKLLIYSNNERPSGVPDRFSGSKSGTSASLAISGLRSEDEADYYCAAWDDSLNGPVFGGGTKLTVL
B1: the dissociation constant (Kd) amounted to 0.79 nM with murine IL-11 and 6.3 nM with human IL-11.

B2: TPP-19850 (antibody, V domains shown)
VH: EVQLLESGGGLVQPGGSLRLSCAASGFTFSSYGMHWVRQAPGKGLEWVSVISYDGSYKYYADSVKGRFTISRDNSKNTLYLQMNSLRAEDTAVYYCAAGVPDYWGQGTLVTVSS
VL: QSVLTQPPSASGTPGQRVTISCTGSSSNIGAGYDVHWYQQLPGTAPKLLIYSNNERPSGVPDRFSGSKSGTSASLAISGLRSEDEADYYCAAWDDSLSGPVFGGGTKLTVL
For B2, the values for the dissociation constant (Kd) with murine IL-11 and with human IL-11 were 1.6 nM and 6.5 nM, respectively.

B3: TPP-19865 (antibody, V domains shown)
VH: EVQLLESGGGLVQPGGSLRLSCAASGFTFSSYGMHWVRQAPGKGLEWVSVISYSGSYKYYADSVKGRFTISRDNSKNTLYLQMNSLRAEDTAVYYCAAGVPDYWGQGTLVTVSS
VL: QSVLTQPPSASGTPGQRVTISCTGSSSNIGAGYDVHWYQQLPGTAPKLLIYSNNERPSGVPDRFSGSKSGTSASLAISGLRSEDEADYYCAAWDDSLNGPVFGGGTKLTVL
As for B3, the Kd in the assay with murine IL-11 came to 3.6 nM; in the assay with human IL-11, 25 nM.

B4: TPP-19863 (antibody, V domains shown)
VH: EVQLLESGGGLVQPGGSLRLSCAASGFTFSSYGMHWVRQAPGKGLEWVSAISYDGSYKYYADSVKGRFTISRDNSKNTLYLQMNSLRAEDTAVYYCAAGVPDYWGQGTLVTVSS
VL: QSVLTQPPSASGTPGQRVTISCTGSSSNIGAGYDVHWYQQLPGTAPKLLIYSNNERPSGVPDRFSGSKSGTSASLAISGLRSEDEADYYCAAWDDSLNGPVFGGGTKLTVL
With B4, the Kd is 0.64 nM with murine IL-11 and 4.7 nM with human IL-11.

B5: TPP-19864 (antibody, V domains shown)
VH: EVQLLESGGGLVQPGGSLRLSCAASGFTFSSYGMHWVRQAPGKGLEWVSVISGDGSYKYYADSVKGRFTISRDNSKNTLYLQMNSLRAEDTAVYYCAAGVPDYWGQGTLVTVSS
VL: QSVLTQPPSASGTPGQRVTISCTGSSSNIGAGYDVHWYQQLPGTAPKLLIYSNNERPSGVPDRFSGSKSGTSASLAISGLRSEDEADYYCAAWDDSLNGPVFGGGTKLTVL
As to B5, in the assay with murine IL-11, the binding result is given as “no binding”. The molecule also registered a Kd in the assay with human IL-11 of 13 nM.

B6: TPP-19849 (antibody, V domains shown)
VH: EVQLLESGGGLVQPGGSLRLSCAASGFTFSSYGMHWVRQAPGKGLEWVSVISYDGSYKYYADSVKGRFTISRDNSKNTLYLQMNSLRAEDTAVYYCAAGVPDYWGQGTLVTVSS
VL: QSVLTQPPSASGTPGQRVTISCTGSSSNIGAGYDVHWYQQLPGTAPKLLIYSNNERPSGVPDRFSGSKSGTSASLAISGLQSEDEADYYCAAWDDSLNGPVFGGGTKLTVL
As to B6, the Kd came to 0.68 nM with murine IL-11 and 5.9 nM in the assay with human IL-11.

B7: TPP-19873 (antibody, V domains shown)
VH: EVQLLESGGGLVQPGGSLRLSCAASGFTFSSYGMHWVRQAPGKGLEWVSVISYDGSNKYYADSVKGRFTISRDNSKNTLYLQMNSLRAEDTAVYYCAAGVPDYWGQGTLVTVSS
VL: QSVLTQPPSASGTPGQRVTISCTGSSSNIGAGYDVHWYQQLPGTAPKLLIYSNNERPSGVPDRFSGSKSGTSASLAISGLRSEDEADYYCAAWDDSLNGPVFGGGTKLTVL
As for B7, the Kd with murine IL-11 amounted to 4 nM; in the assay with human IL-11, 21 nM.

B8: TPP-19862 (antibody, V domains shown)
VH: EVQLLESGGGLVQPGGSLRLSCAASGFTFSSYGMSWVRQAPGKGLEWVSVISYDGSYKYYADSVKGRFTISRDNSKNTLYLQMNSLRAEDTAVYYCAAGVPDYWGQGTLVTVSS
VL: QSVLTQPPSASGTPGQRVTISCTGSSSNIGAGYDVHWYQQLPGTAPKLLIYSNNERPSGVPDRFSGSKSGTSASLAISGLRSEDEADYYCAAWDDSLNGPVFGGGTKLTVL
With B8, the values for the Kd with murine IL-11 and with human IL-11 were 4.7 nM and 19 nM, respectively.

B9: TPP-19842 (antibody, V domains shown)
VH: EVQLLESGGGLVQPGGSLRLSCAASGFTFSSYGMHWVRQAPGKGLEWVSVISYDGSYKYYADSVKGRFTISRDNSKNTLYLQMNSLRAEDTAVYYCAAGVPDYWGQGTLVTVSS
VL: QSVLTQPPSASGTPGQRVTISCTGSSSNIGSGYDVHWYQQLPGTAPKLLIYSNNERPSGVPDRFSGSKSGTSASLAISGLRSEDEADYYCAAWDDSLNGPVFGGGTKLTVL
Regarding B9, the Kd in the assay with murine IL-11 amounted to 0.66 nM; in the assay with human IL-11 it was 7.3 nM.

B10: TPP-19845 (antibody, V domains shown)
VH: EVQLLESGGGLVQPGGSLRLSCAASGFTFSSYGMHWVRQAPGKGLEWVSVISYDGSYKYYADSVKGRFTISRDNSKNTLYLQMNSLRAEDTAVYYCAAGVPDYWGQGTLVTVSS
VL: QSVLTQPPSASGTPGQRVTISCTGSSSNIGAGYDVYWYQQLPGTAPKLLIYSNNERPSGVPDRFSGSKSGTSASLAISGLRSEDEADYYCAAWDDSLNGPVFGGGTKLTVL
For the molecule B10, the equilibrium dissociation constant (Kd) was determined as 5 nM with murine IL-11 and 20 nM in the assay with human IL-11.

B11: TPP-19867 (antibody, V domains shown)
VH: EVQLLESGGGLVQPGGSLRLSCAASGFTFSSYGMHWVRQAPGKGLEWVSVISYDGSSKYYADSVKGRFTISRDNSKNTLYLQMNSLRAEDTAVYYCAAGVPDYWGQGTLVTVSS
VL: QSVLTQPPSASGTPGQRVTISCTGSSSNIGAGYDVHWYQQLPGTAPKLLIYSNNERPSGVPDRFSGSKSGTSASLAISGLRSEDEADYYCAAWDDSLNGPVFGGGTKLTVL
For the molecule B11, the Kd came to 3.4 nM with murine IL-11 and 27 nM in the assay with human IL-11.

B12: TPP-19847 (antibody, V domains shown)
VH: EVQLLESGGGLVQPGGSLRLSCAASGFTFSSYGMHWVRQAPGKGLEWVSVISYDGSYKYYADSVKGRFTISRDNSKNTLYLQMNSLRAEDTAVYYCAAGVPDYWGQGTLVTVSS
VL: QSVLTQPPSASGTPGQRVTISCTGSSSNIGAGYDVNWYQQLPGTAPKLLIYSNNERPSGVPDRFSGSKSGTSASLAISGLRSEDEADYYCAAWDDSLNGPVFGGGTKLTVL
B12: the Kd with murine IL-11 amounted to 2.1 nM; in the assay with human IL-11, 9 nM.

B13: TPP-19843 (antibody, V domains shown)
VH: EVQLLESGGGLVQPGGSLRLSCAASGFTFSSYGMHWVRQAPGKGLEWVSVISYDGSYKYYADSVKGRFTISRDNSKNTLYLQMNSLRAEDTAVYYCAAGVPDYWGQGTLVTVSS
VL: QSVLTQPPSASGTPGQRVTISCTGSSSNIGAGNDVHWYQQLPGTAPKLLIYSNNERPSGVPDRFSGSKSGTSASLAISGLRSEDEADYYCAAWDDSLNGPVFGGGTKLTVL
Turning to B13, the results for the Kd with murine IL-11 and with human IL-11 were 7.5 nM and 17 nM, respectively.

B14: TPP-19866 (antibody, V domains shown)
VH: EVQLLESGGGLVQPGGSLRLSCAASGFTFSSYGMHWVRQAPGKGLEWVSVISYDGGYKYYADSVKGRFTISRDNSKNTLYLQMNSLRAEDTAVYYCAAGVPDYWGQGTLVTVSS
VL: QSVLTQPPSASGTPGQRVTISCTGSSSNIGAGYDVHWYQQLPGTAPKLLIYSNNERPSGVPDRFSGSKSGTSASLAISGLRSEDEADYYCAAWDDSLNGPVFGGGTKLTVL
Turning to B14, the results for the Kd with murine IL-11 and with human IL-11 were 1.4 nM and 8.5 nM, respectively.

B15: TPP-19848 (antibody, V domains shown)
VH: EVQLLESGGGLVQPGGSLRLSCAASGFTFSSYGMHWVRQAPGKGLEWVSVISYDGSYKYYADSVKGRFTISRDNSKNTLYLQMNSLRAEDTAVYYCAAGVPDYWGQGTLVTVSS
VL: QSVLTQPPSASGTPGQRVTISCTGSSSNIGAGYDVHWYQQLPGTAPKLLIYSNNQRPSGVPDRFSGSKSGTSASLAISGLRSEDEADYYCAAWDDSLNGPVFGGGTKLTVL
As to B15, the equilibrium dissociation constant (Kd) worked out at 2.4 nM with murine IL-11 and 52 nM with human IL-11.

B16: TPP-19872 (antibody, V domains shown)
VH: EVQLLESGGGLVQPGGSLRLSCAASGFTFSSYGMHWVRQAPGKGLEWVAVISYDGSYKYYADSVKGRFTISRDNSKNTLYLQMNSLRAEDTAVYYCAAGVPDYWGQGTLVTVSS
VL: QSVLTQPPSASGTPGQRVTISCTGSSSNIGAGYDVHWYQQLPGTAPKLLIYSNNERPSGVPDRFSGSKSGTSASLAISGLRSEDEADYYCAAWDDSLNGPVFGGGTKLTVL
For B16, the dissociation constant (Kd) in the assay with murine IL-11 is 0.47 nM; in the assay with human IL-11 it was 5.5 nM.

B17: TPP-19868 (antibody, V domains shown)
VH: EVQLLESGGGLVQPGGSLRLSCAASGFTFSSYGMHWVRQAPGKGLEWVSVISYDGSYTYYADSVKGRFTISRDNSKNTLYLQMNSLRAEDTAVYYCAAGVPDYWGQGTLVTVSS
VL: QSVLTQPPSASGTPGQRVTISCTGSSSNIGAGYDVHWYQQLPGTAPKLLIYSNNERPSGVPDRFSGSKSGTSASLAISGLRSEDEADYYCAAWDDSLNGPVFGGGTKLTVL
As to B17, the Kd with murine IL-11 stood at 0.72 nM; with human IL-11, 6.2 nM.

B18: TPP-19874 (antibody, V domains shown)
VH: EVQLLESGGGLVQPGGSLRLSCAASGFTFSSYGMHWVRQAPGKGLEWVSVISYDGSYKYYADSVKGRFTISRDNSKNTLYLQMNSLRAEDTAVYYCARGVPDYWGQGTLVTVSS
VL: QSVLTQPPSASGTPGQRVTISCTGSSSNIGAGYDVHWYQQLPGTAPKLLIYSNNERPSGVPDRFSGSKSGTSASLAISGLRSEDEADYYCAAWDDSLNGPVFGGGTKLTVL
Regarding B18, the equilibrium dissociation constant (Kd) turned out to be 9.9 nM with murine IL-11 and 99 nM in the assay with human IL-11.

B19: TPP-19861 (antibody, V domains shown)
VH: EVQLLESGGGLVQPGGSLRLSCAASGFTFSSYAMHWVRQAPGKGLEWVSVISYDGSYKYYADSVKGRFTISRDNSKNTLYLQMNSLRAEDTAVYYCAAGVPDYWGQGTLVTVSS
VL: QSVLTQPPSASGTPGQRVTISCTGSSSNIGAGYDVHWYQQLPGTAPKLLIYSNNERPSGVPDRFSGSKSGTSASLAISGLRSEDEADYYCAAWDDSLNGPVFGGGTKLTVL
Take B19: the figures for the Kd with murine IL-11 and with human IL-11 were 28 nM and 17 nM, respectively.

Broadly, the Kd is the equilibrium constant for the complex coming apart.
